# Assay results taken from the RNAGym collection of RNA variant scans (doi:10.1073/pnas.2313332121).
# B1: TPR t1 (parent)
# chain: GACCAAUCUGCCCUCAGAGCUCGAGAACAUCUUCGGAUGCAGAGGAGGCAGGCUUCGGUGGCGCGAUAGCGCCAACGUCCUCAACCUCCAAUGCAUCCCACCACAUGAUGAUGCCUGAAGAGCCUUGGUUUUUUG
# Variants of: B1
# Experiment: polymerase ribozyme fitness, log enrichment relative to wild type (log ratio); higher = more active; in vitro selection for triplet polymerase activity
# Outline: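 One round of in vitro selection, in triplicate, was applied to PCR-built, transcribed mutant libraries of each subunit of a heterodimeric triplet polymerase ribozyme. The steps were annealing with a biotinylated primer, partner subunit and triplets, incubation frozen at −7 °C, gel excision of extended constructs, streptavidin-bead capture and RT-PCR. Fitness is the logarithm, base 2, of genotype enrichment over wild-type enrichment from inverse-variance-weighted replicate averages of Illumina-sequenced inputs and outputs, keeping genotypes with ≥10 input reads and ≥1 read per output.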
row,Variant,polymerase ribozyme fitness (log ratio)
1,G10U C20A A50C C72U C114U,-4.68
2,C73G A91C G127A,-3.34
3,C72U G113U,-2.87
4,G52U C72G A121G,1.49
5,C56A A83G U129G,-2.3
6,A16C A90C,-4.52
7,G36A C62A C102A,-5.26
8,A5C C15G G57U,-3.53
9,A27U A74U U87A,-2.97
10,U38G C64U,-1.09
11,A43U C73U U92G G113A,-2.84
12,A5G G63A,-1.41
13,C34U G113A C124A,-5.17
14,C12U C15U A90G A100C,-1.2
15,C11G G93C C97G U106A G120C,-3.9
16,C22U A37U G57A C115A,-4.73
17,A6C C12U G48C U78G G110C,-4.8
18,U9C U116C U129A,-0.962
19,C8A G36C G60U,-0.605
20,C11G U59C,1.4
21,C101A G110U,-3.04
22,A66C G93A A121G,-0.199
23,A84C C85G U133C,-0.825
24,C22A C56A U112C,-2.01

row,Variant,polymerase ribozyme fitness (log ratio)
1,G60U G63U,-4.69
2,G63C C94A U112A U116A,-2.14
3,C13U G127C,-1.18
4,G69C C104A,-1.87
5,C8G G93A A111C,0.513
6,A5U A6U C20U G69A U81A G113A,-2.02
7,C123A U125C U129G,-1.5
8,U9G A27U A100U,-3
9,C8A A26U A46C C56U,-2.74
10,C22G C53U C70A G120A G128U,-4.71
11,A27U C82U,-2.99
12,G107A G117A,-5.11
13,G60C A121U,1.85
14,G44U G63C C79U U112A,0.269
15,G60C C94G,-1.12
16,G71U,-0.118
17,G93U G113C U125A,-3.4
18,C72U A121U,1.5
19,C15U G39C C94U C115U C123A G135U,-5.48
20,U9A A46U A74C C88G,-2.48
21,A43U C49G G135U,-3.89
22,G63U U131C U132A,-1.24
23,U9G G61A C80A A95C G110U C115A A119C,-7.18
24,U9A C13U C64G,-5.17

row,Variant,polymerase ribozyme fitness (log ratio)
1,G17A A83G,-3.95
2,G47A C62U,-1.85
3,C70G C85U,-3.79
4,C12U C102U,-1.83
5,G61U C123G,1.2
6,C86U U116C,-0.139
7,C4A U9A C72A U78C,-0.731
8,G110U G122U,-2.07
9,G51U C88A U106A U112C,-3.27
10,U7C U9C,0.297
11,G61A A83U A90G,0.0238
12,C79A G110U,-3.48
13,C70U G110A,-1.77
14,C8G U21A G57C A108G U133C,-5.29
15,C4A G17U C73U,-3.37
16,G61A A74C U112A,-2.06
17,C11G G113U,-2.12
18,U78C C98U U112A U130A,-3.27
19,U33A C49U C73U,-5.84
20,C49U U92A,-3.99
21,G44A U130C,-0.447
22,U9G C53A,0.283
23,C72G C79A,-0.874
24,A37U A50C C70A C124G,-1.17

row,Variant,polymerase ribozyme fitness (log ratio)
1,C3A U38G A103C A118G C123G,-6.41
2,U7A C94U A95U C123U G127U,-1.38
3,C12G C53U G60C C89U C102U C104U,-2.28
4,A6U C13A G36C C123U,0.00441
5,A18U C53U C124G,-0.337
6,A26U G61A U116G A121G,-2.88
7,G42A C62U A83U C85U C124G G128U,-3.77
8,G42C U106A C115U G120U,-4.34
9,C15U A43G G57U C85A G93U G120C,-4.37
10,A5G C8U G63U C70A C86G,0.268
11,C11U G19U U54A A121C G135U,-2.38
12,C56U U78C A111C G113U,-4.24
13,C56A A108G G117U,-3.81
14,C101U G120U,-1.36
15,C11G G48A C82U G122U,0.0866
16,G51A G61A U125A,-2.21
17,A43C G45A G48C,-3.39
18,G25C U33G C34U A46U C70A,-8.69
19,A37U U38A G63A,-3.7
20,A2C C11U C15U U55G A90G A121G,-0.451
21,C53U C62U A95C,-1.08
22,C13G C124U,0.0672
23,G71A G107A,-4.98
24,A16G G45A C80G C114U,-5.91

row,Variant,polymerase ribozyme fitness (log ratio)
1,A2G C101G,-1.53
2,U7A C56U,0.211
3,G52A C70A U92A G93C A105U U112A C115A U130C,-6.48
4,C40G C56U C88U G122U,-2.63
5,G10A C64U,-0.954
6,A26U C64U,-3.52
7,C53A G57A G93C,-0.961
8,C12A A111U,-2.77
9,C22U U55A,-3.49
10,A75G G120A A121C,0.562
11,C3A G57U A75C C85G U112A C123U,-1.77
12,G113A G128U,-2.37
13,C76U G120C,0.737
14,C40U C88A U106C,-1.06
15,C28U A84G A90C G113C,-5.73
16,C40G G71U,-1.23
17,G69A C102A,-6.02
18,C104A U112G C123G,-1.23
19,C15G A74U G117U,-0.0169
20,A6U C72G C73U A90U C98G C102U A108U C123G,-7.4
21,A6U G10C,-0.4
22,U92A G113U,-3.75
23,C13A C79A,-3.23
24,C11G G17C U55G C73U,-3.54

row,Variant,polymerase ribozyme fitness (log ratio)
1,G63U C72U C82G G113C,-4.22
2,A46U U81C A90G C114U,-3.58
3,C8A U59G C72G U133G,-3.35
4,C8A U33A G42U C73U U112A C123A,-5.52
5,U87G U96A C102A,-2.66
6,U33C G63U,-3.43
7,C13U A43C G71A C73G C82A C98G C102A A105U G117C,-6.52
8,C12A U32A C34G C102U,-6.82
9,A37C G58A C72G U78C G113C,-3.84
10,C22U U59C A100C,-3.95
11,C72U A74U,-1.23
12,C13U C34U C62A G120C C124U,-6.16
13,G71C C123G,0.627
14,C79U C80U,-2.32
15,U78G C123A,-1.06
16,C11U A26U G52C G61U,-2.85
17,C12U A26U C94U A118G,-2.71
18,G63C C80A,-3.71
19,A50C U87A,-0.514
20,C3G G39U,-2.39
21,C11A C13U G63C A83U,-1.91
22,C8A C34A G42U,-4.61
23,C49A G61A C89G U106G C123U,-3.4
24,U32C C56A,-1.29

row,Variant,polymerase ribozyme fitness (log ratio)
1,C70U A108G,-2.04
2,C62U U87C C88G C114A,-3.36
3,A74U U129A,-1.52
4,C11U A29C C72G U112A G135U,-2.74
5,C15U G44C A50C G61U U96C C104U,-2.29
6,G48C G51U C73U C76A G77A A119G,-6.51
7,C13U C85G C123U,0.618
8,U7C A27G A46U G48U U59G G60U,-3.46
9,C53U C64U A83G,-0.811
10,A100C A111G,0.924
11,A5C U14C G60U A100C G135U,-4.82
12,C40G A50U G120C,-0.881
13,A2C C64U,-1.07
14,U87G G110A,-0.698
15,U32A G117A,-5.64
16,C8G A24C U38G G44A G63A C88U A95C G117U,-7.47
17,A26U C53G C73U A100U,-4.47
18,A24G A29U G47A A74G U87A U109G,-6.31
19,C53A C72G U92C U126A U132A,-4.63
20,G42C G44C,-0.912
21,U9C G69U U130G,0.198
22,U9G U78C C79G G110A,-2.65
23,A2U U106A,-1.89
